{
  "source": "the DeepSol protein solubility set",
  "data": [
    {"assay": "soluble on expression in E. coli; label from the status in PepcDB or PDB records", "values": [
      {"sequence": "MGSDKIHHHHHHMEQSATPACSICFPDSICRISPSSPLASPNGDEYHMKIALLCSGLGNVQRGHEIFVRDLFDMLKGSVDITLFKGGGEPAPNELVIDNVSRNAPSLQNIHLAVSPRWKVAMQEQERIRIETETFAHAALRPLLEGGYDIIHCLEQEVCNRLYGFRHLFAHTPKFLFSNGGAIPAAKLSNCDFVQEHTEYNLQHSAREKAFCIPHGVDIQRFNPSISSDFRARYGIAEDAFVVISVGIICYWHKRMDYLIKEVAQIPEAHLLIVGQECADTPAIKALGEKLMPGRITFTKMPHDELPQAYAAADVFALGSLFETFGIVYIEALAMGLPVFCTEHPNQRSIVREGVFLDIKQAGALRDALLKRDPAQMRYLRERGPQIARETYALEKLKSAYIEHYQRIAASEVSLPRYTFKTKLQDNVRSLYRRLSRG", "soluble on expression in E. coli": "not soluble"},
      {"sequence": "MGSDKIHHHHHHMERDMICTPISYQNKTSAQTFSNFLKHTRTENNLSQEDLCGLLRQKSCLFDTLDSITISRWERGVNIPSLAKQSEIVEIFGSELFDIYREDKKFINEGLALINLFESNIERSDHPYYRNTPYRVEFIESHHHNFMALLQLSLVYESNPRLSFVSRNLSQPFFHGLSLVVAFSSGDQIVGHSLFCRSQGKIALEFMNDEVDLFEVINHNSQALPDTLMVFSSFGVTPYIENYMMSVYLNELAASRSLKFLSFNICDESLKRKLTQFKLPIFKVRTIEGCCKPIKNYSFFSSRTEVMANRNLLKLSVIPSSKSQTIDPIFFMQLETPI", "soluble on expression in E. coli": "not soluble"},
      {"sequence": "MGSDKIHHHHHHMERLAQPSRFLQRKLFEVNLLKPVTVEKEAPIGEIRRILRDTGSRIVLVVNGEGRLEGVIYRSSVILVTSRKSEAKALDIMEEPAVVLKPSYSLEEAVFSMLKFDEWYAPVVNDANRLVGVLGLETPIRLLLEAGFYRGYTASDAMTRDVEYVLEGDSLTRVWEIMVERRYAGVPVVDQRMVVRGIVTQYDLIRKGYTRLGLESEAPPHRVRVESVMTRSVIYVAESDNLEDVARIMLDRGVGRVPVVKSRDSRVLTGIIDREDLVRLYFKSRGRASL", "soluble on expression in E. coli": "not soluble"},
      {"sequence": "MGSDKIHHHHHHMERVLIIGALTFVGYHLVNKMIAEEVEVYGLDFDEFDSMTKINEEKLLLIGRNALFTYYSIRDEDGWRSVEEEKFDAVYFCLYEPNQQRGFRNERVILQYLKRMIRLCEEHKVKLNLISSIEVGNADESENKRLFSKVEEGLKKGEVQYSVFRVPTLYGPWQPSFMMYHQLMLSELGEKECHYAGEENGSDLLYVEDVCEYLWENGMNEEHLGIYNLLSGKKSLWKKGMNLLRAEDKVNKENAEERDGAAEDILIKRNTPLEYGLNKQLAHMKKYKELYEG", "soluble on expression in E. coli": "not soluble"},
      {"sequence": "MGSDKIHHHHHHMETFGGQVGRQEVPESSIDRYRGKLPNQLLTYWAEHGWCGYGDGIFWTVNPQEYDAVVASWLEGTKFETFDAYHLIARSAFGDLYLWGEEIGASLKITSILSRYTTHKSLCLGSQMDKGLQSFILSRKVGSNDYGDLFRPARKKLGTLHHDEMYGFVPALMLGGADTLDHLEKVKAVEHLVLLSQLSDLESYDFQDL", "soluble on expression in E. coli": "not soluble"},
      {"sequence": "MGSDKIHHHHHHMETIGQTLAKKDNHKYDTEKMTQAILSDQEIANFIAAHHLSKEQIKISLPKFNQYRLERTRFENHDQAYIAKGYQPLLVMNEGYADVAYKETKELIAAKKTQAISDRINVVSLPRSYKNISFDDINLDDVKRLDVFKRVADFVEQYPNPEQKGLYLYGDMGIGKSYLMAAMAHELSEQRGAATTLLHFPSFTIDVKNAINTGTVKKEIDAVKTADILILDDIGAEQSTSWIRDEVLQVILQYRMLEELPTFFTSNYSFKDLEAKLANIKGSDETWQAKRVMERIRYLAKEIHLEGENRR", "soluble on expression in E. coli": "not soluble"},
      {"sequence": "MGSDKIHHHHHHMETPTQDMDVRWLYTQSQLKLREILPTNKTFDVIQISELVDPTDFISPNSVVLSVGIAFAETPDGLRDWAHRLADAGVIAIGFGSGLTFPQVPQALIDASLHLGLGLFEVPREIPFISITSSVRDEQTRRAGRLQQELLLEQERLNSIAISGGIEALCRAAADYLGGAVAIVDSDGRVACSITTDDLDALPQAVSRLNGSSQALTDATNFGFIHRMTRYGDRHHVLSVLMPTRPSEQHRALIRHCAGLADILLQRPEAMRDREIEVRSLAMSLLLGRSDDLATIHRVFADITDASGNIRPILITGNTPQSVRKALSSVATALYKQERALAHLRLAESTELLFLRGSRSVHNIVQLFGTAASGVRLCIGLPTRAENIDKKLIRELTATAKTLQLGTHAEPRDGTLLWLQNPELRKILKIRSRDTYDRLLDHDRTNNTELAPTLVSFTQHSGHIGDTAKELGIHRHTVRTRMIRIEEICEIDLNDPLTRAELLLVIATKEGDVEKQ", "soluble on expression in E. coli": "not soluble"},
      {"sequence": "MGSDKIHHHHHHMETTKLGNLKLYGAGHAAGGAYHNVSIKGEGIVGEGLSAVGCRIYGTGLFLGKAETERLRVLGESECKGDLTAGKINIYGTMKVSGSLQFDRFNLKGQTEIGGNMTGESCDVKGKLSVIGDCETEMFHVTGCVDVSGLLNSGEIKLGLSHDINHVQEIGGTTITVKRRASFFSRKKGKLIADVIEGDRVYLENTEAAVVRGKEVIIGPGCSIGTIEYEYKCECDPHSQIKEKTKL", "soluble on expression in E. coli": "not soluble"},
      {"sequence": "MGSDKIHHHHHHMEVASATNNPVQNPAGALAAPGNDAASLKNEFMTLMIAQIKNQDPTKPLNSAEYISQLAQFSQVESLEGMRKNQSNQMIMMENLGIVQSASLIGKNAMVPVSEFKLDGETVEGKVYLENAVEALDIEIVNSEGQVVHTMQLGAQAVGDIRFAIDPDELGLEKGQYEIKAKATLGENSLVAPTYIKAPIERIHFSSASGMMMAEMGHGVGVISVLNISEVS", "soluble on expression in E. coli": "not soluble"},
      {"sequence": "MGSDKIHHHHHHMEVIFKRPKALSDREFTYCPGCHHGIIHRLIAEVIDELDIQEKTIMVAPVGCSVFAYEFFDVDGTVAPHGRALAVATGIKRALPDMIVFTYQGDGDLAAIGIAETIHAANRGEKLTTIFVNNAVYGMTGGQMAPTTLLGQKTTTTPYGRTAANDGYPLHVSEALSTIDGVAYLERTTVSTTKDILNTKKAIKKAFLAQIKGLGFGMVEVLSTCPTNWGMSPVEAQNWLLENMVKEFPPKVFVDKVGD", "soluble on expression in E. coli": "not soluble"},
      {"sequence": "MGSDKIHHHHHHMEVIRLDKVSLWRRTQEEFSYDLKKTLLSLIEGKYRKPAKKLVLDNVDLVVEKGDKIGIIGANGSGKSTLLKIISGILQPTTGTVRVRGQVAPLIELGAGFDAEISVMDNILLYGVLLGFSRAEMKERANSILEFAELQDYALVPVKGLSSGMVARLGFSIATDVQPNILILDEVLSVGDENFKNKCKQRIDNFWNGDATVLVVSHDLQFVKQYCNQLVWLSHGKIEFIGDAGEAIQNYLSTLTST", "soluble on expression in E. coli": "not soluble"},
      {"sequence": "MGSDKIHHHHHHMFDKQEFVSKLVTEEKAKIVLLVMDGLGDIPVNGKTPLQAANTPNLDNLAKESDLGQTIPVLPGITPGSGPGHLSLFGYDPIKYQIGRGILEALGIGVEVGEKDVVARANFATWDGKVVLDRRAGRPATEESAKVVQLLSEKIKKIEDVEITFYPGKEHRFVVKFTGEGLGDKVTDADPQKEGHPMVWAEGLDEPSKKTARIVNELIKKIAEVLKDNPKINFALIRGFSKYPDLPKFPQVYKMKAGAIATYPMYRGLAKLVGMEIIETGQTVADEIKTLKEKWNDYDFFYVHVKKTDSYGEDGKFEEKVKVIEEVDAIIPEIVSLNPDVLVITGDHSTPVPLKAHSWHPVPLLIWSKYTRRGLSQAFNEFECARGTLGTIHASDVMTLALAYAGKLEKFGA", "soluble on expression in E. coli": "not soluble"},
      {"sequence": "MGSDKIHHHHHHMFDLNDLFYFVQVVECRGFAPASRKLGIPKSKLSRRIAGLEERLGVSLIHRSTRKFAVTESGRDYYGHCVAMLVEADAAEEAIQRSKSEPQGKVVISCPPAMAAMGINEAIAGFMAAHPKVQVHIESTNRRVDPLIENIDIALRVRFPPLEDDGLVVKTLGHSAQRLVAHPDLAALLPANASFEALARLPSLDVTSSTPEHRWLLENGPGHYVEVRHAPRLVSSDLDAILQAALQGVGVAQLPEILVREALQQGRMVELFDAHRPKCGILHAVFVSRRGLLPAVRGLLDAFESSFTELTHNPESLYCSLHRTNSRIQGD", "soluble on expression in E. coli": "not soluble"},
      {"sequence": "MGSDKIHHHHHHMFDTLASLGRDLQARETLNACLDRVFRDVCAQGFQSLVYDYAPVPLSMEGALITPSVFLQRNAPDDMHNVWCEHGYYQNDPVQQRATRRTTPFVWSYRTEGRTEGRTEGVEYVGDQHRQVTRYLCDSDMGTGVTVPLHLPGGAFATFSAAVNATQAEAPRLAEAQLPPFLLLAHAFQARAQELLDPQERRCHHIALTRRERECLQYSAKGMTAKSIAATLNRSTATVNLHLNSAARKLGARNRVEAVVRGMHYRLLEL", "soluble on expression in E. coli": "not soluble"},
      {"sequence": "MGSDKIHHHHHHMFEMGIQELVKTIDTNINHMISLSVLNLAQLGIKYGIFKAVASRPSYEELLSQIPVPNKPLLKKLIEHLKALGIIEETPSNLILNGFSYVLKFPKEDYMLLLSDWIPIWEEIYKMVDFALISYSHPYVLMDFDKDADFWDIRLSSSFNKTYRDAIINLGEIREDSYILDLGCGSVSPAYFGKFISEDGKYVGVDYSPGLLEIARERVERNGLPAELKEMDVSLIRTRSKYDVAIMSFLLEYVRDREEVLGKVLEALDSGGKLIIVEAFRDEFENIQAMEFFESLNRSFVGYPAKAEIKKAILREGFDVSFEDYGKSILVVRKL", "soluble on expression in E. coli": "not soluble"},
      {"sequence": "MGSDKIHHHHHHMFKDYQPKKGFDEYFSSDDFLPRSSLEPLLTSLGEMGLHQLNISHEIARKLLLRHGATFRLNDSGSKGSERILPFDPLPRVIGSLEWLGLERGLIQRLEAIDLFLADVYGKQQIINDGIIPRDFIESSDGWRPQMKGFVLPLGKWCHVSGLDLIRDGNGEWLVLEDNLRCPSGVAYFLENRLVMKRIFPSLFNGRVVRPIEDYPSYLLKSLQELAVWTDTPKVVLLTPGVFNSAYFEHSYLAQQMGIQLVEGSDLVCQNQNVYLKTTSGIKKVDVIYRRIDDDYLDPKFFRKDSMLGVPGLIDVLKKGRVAIANAPGTGLADDKLIYTFVPEMIRYYLKEEPIINNVKTYVCARSSDLSFVLENLGKLVVKSVSEAGGYGMLIGPHSSQIDIDKFSAKIKANPRNYIAQPTLDLSTVPSLSDGEVYPCHVDLRPYVLRGKNTWVSPGGLTRVALKRDSLIVNSSQGGGCKDTWVVG", "soluble on expression in E. coli": "not soluble"},
      {"sequence": "MGSDKIHHHHHHMFKKYDAYLVGYYGMQNSGDDALMYATAWAAKNILGCNNTKVGLYGDYARETQSDNQLPLKFTQQFPGQNRLLHYKTAIQSKRIIFGGGSVLHSESDINLKRQLMSLANQKKSLAVGIGIGPFNSVMAEKSCAKFLNECGYVGVRDNASLAIARNIAPHANVHKTFDLAPLLLCSKQYKPSNRERQGIALTLCSVAIDAMGNTDELEEEKRVEQFVQLITKIYARTGEPITLIEFNGHNVLGDWKINNNIITRLLDKYIPVSIKKYDPNPIALLNKLSGYKAIVSMRLHGSILGYLANTPVLSINYHSKCKGWCDEVGMPEDYKIDLFNLNIEKIVSQIALGVSTTFQQPTLSINNALKNSLSNWSTQNEQFKFYRNYSTV", "soluble on expression in E. coli": "not soluble"},
      {"sequence": "MGSDKIHHHHHHMFKPMASVFTNHQIAGHYRAIERAQKCVVPFHFEIQGQEYPKPKPERNWLRRLSGTSSEKYAMVELTPTKVVLWSPEGRNLGEMPLSAVRRIQIGAIRCHVTEGLDPRHAFRATIFVLTDSGNYYFANSDMEVLPAICKFAHEHQVPVEDPLRLIPLLKVGWRVAAVTLHETYAQLVAHTGYPADKV", "soluble on expression in E. coli": "not soluble"},
      {"sequence": "MGSDKIHHHHHHMFLVISVVGSSNIDIVLKVDHFTKPGETQKAIEMNVFPGGKGANQAVTVAKIGEKGCRFVTCIGNDDYSDLLIENYEKLGITGYIRVSLPTGRAFIEVDKTGQNRIIIFPGANAELKKELIDWNTLSESDILLLQNEIPFETTLECAKRFNGIVIFDPAPAQGINEEIFQYLDYLTPNEKEIEALSKDFFGEFLTVEKAAEKFLELGVKNVIVKLGDKGVLLVNKNEKKHFPTFKVKAVDTTAAGDVFNGAFAVALSEGKNPEEAVIFGTAAAAISVTRLGAQSSIPAREEVEAFLKNL", "soluble on expression in E. coli": "soluble"}
    ]}
  ]
}
